Paper PMC6208734

Tests used:
[1] = target: AD-PHF Tau (paired helical filament Tau isolated from Alzheimer's disease brains) (human (endogenous in AD brain)); experiment: SPR; AD-PHF fraction 11 amine-coupled to a CM5 chip (about 500 RU); full-length IgG 1-300 nM as analyte, 180 s injection, 1200 s dissociation; BIAcore T200, 25 °C; HBS-EP+ with additional 150 mM NaCl and 1.25% CM-Dextran; extrinsic affinity; 1:1 binding or bivalent analyte model
[2] = target: AD-PHF Tau (paired helical filament Tau isolated from Alzheimer's disease brains) (human (endogenous in AD brain))

AD-PHF Tau (paired helical filament Tau isolated from Alzheimer's disease brains) (human (endogenous in AD brain)), sequence (P10636 2-758): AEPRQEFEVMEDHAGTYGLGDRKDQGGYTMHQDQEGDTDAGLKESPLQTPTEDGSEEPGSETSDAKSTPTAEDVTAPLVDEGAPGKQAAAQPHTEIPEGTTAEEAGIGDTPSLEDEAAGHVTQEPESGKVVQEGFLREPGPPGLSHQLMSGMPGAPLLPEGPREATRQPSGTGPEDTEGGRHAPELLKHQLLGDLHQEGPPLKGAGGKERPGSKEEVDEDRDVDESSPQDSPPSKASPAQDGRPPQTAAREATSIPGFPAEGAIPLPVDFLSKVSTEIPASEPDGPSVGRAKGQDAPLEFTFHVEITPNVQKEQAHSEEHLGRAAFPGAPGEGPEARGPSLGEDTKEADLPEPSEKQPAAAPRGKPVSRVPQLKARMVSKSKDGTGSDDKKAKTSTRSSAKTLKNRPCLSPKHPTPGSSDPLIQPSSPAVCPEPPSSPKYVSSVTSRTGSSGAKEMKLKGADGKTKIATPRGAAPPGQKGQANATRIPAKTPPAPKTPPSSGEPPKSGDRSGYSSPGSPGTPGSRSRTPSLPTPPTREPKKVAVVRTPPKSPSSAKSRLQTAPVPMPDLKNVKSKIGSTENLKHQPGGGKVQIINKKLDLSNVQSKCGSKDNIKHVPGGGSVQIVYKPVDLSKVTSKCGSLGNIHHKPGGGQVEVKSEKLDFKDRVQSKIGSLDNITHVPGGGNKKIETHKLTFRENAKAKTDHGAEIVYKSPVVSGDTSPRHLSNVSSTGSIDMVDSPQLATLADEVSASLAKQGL

B1: antibody F (antibody, V domains shown)
VH: EVQLVQSGAEVKKPGESLKISCKGSGYTFSNYWIEWVRQMPGKGLEWMGEILPGSDSIKYEKNFKGQVTISADKSISTAYLQWSSLKASDTAMYYCARRGNYVDDWGQGTLVTVSS
VL: EIVLTQSPGTLSLSPGERATLSCRSSQSLVHSNQNTYLHWYQQKPGQAPRLLIYKVDNRFSGIPDRFSGSGSGTDFTLTISRLEPEDFAVYYCSQSTLVPLTFGGGTKVEIK
**Q.** With B1 as the binder, how does the Kd [1] read?
**A.** 25.8 nM

**Q.** What about the koff [1] of the same binder?
**A.** 0.00196 s⁻¹

**Q.** And the kon [1]?
**A.** 730000 M⁻¹ s⁻¹

B2: antibody A (antibody, V domains shown)
VH: EVHLVESGGALVKPGGSLKLSCAASGFSFSKYGMSWVRQTPDKRLEWVATISSSGSRTYYPDSVKGQFTISRDNAKNTLYLQMSSLKSEDTAMYYCSISWDGAMDYWGQGTSVTVSS
VL: DVLMTQTPLSLPVSLGDQASISCKSSQSIVHSNGNTYLEWYLQKPGQSPKLLVYKVSNRFSGVPDRFSGSGSGTDFTLKISRVEAEDLGTYYCFQGSLVPWAFGGGTKLEIK
**Q.** Which results are given for B2?
**A.** Kd [1]: 0.12 nM; koff [1]: 2.5e-05 s⁻¹; kon [1]: 230000 M⁻¹ s⁻¹

B3: antibody B (antibody, V domains shown)
VH: EVKVEESGGGLVQPGGSMKLSCVVSGFTFSNYWVNWVRQSPEKGLEWVAQIRLKSDNYATHYEESVKGRFTISRDDSKSSVYLQMNNLRAEDSGIYYCTNWEDYWGQGTTLTVSS
VL: DIVLTQSPASLAVSLGQRATISCRASQSVSTSRYSYIHWYQQKPGQPPKLLIKYASNLESGVPARFSGSGSGTDFTLNIHPLEEEDAATYYCHHSWEIPLTFGAGTKLELK
**Q.** With B3 as the binder, how does the neutralisation of AD-PHF Tau seeding of HEK293 cells expressing P301S Tau (TR-FRET of aggregated Tau), antibody 0.1 to 300 nM; effect only at the highest doses [2] read?
**A.** 74%

**Q.** What about the Kd [1] of the same binder?
**A.** 3.1 nM

**Q.** And the koff [1]?
**A.** 0.000117 s⁻¹

**Q.** What about the kon [1] of the same binder?
**A.** 40000 M⁻¹ s⁻¹
